± gives the uncertainty stated by the source.
Experiment: self-splicing fitness, log relative to wild type (ln ratio); higher = more splicing; Tetrahymena group I intron in knt gene, E. coli kanamycin selection, DiMSum; sequences stand for … in CUCUCU…GGAGGGAAAAGUUAUCAGGCAUGCACCUGGUAGCUAGUCUUUAAACCAAUAGAUUGCAUCGGUUUAAAAGGCAAGACCGUCAAAUUGCGGGAAAGGGGUCAACAGCCGUUCAGUACCAAGUCUCAGGGGAAACUUUGAGAUGGCCUUGCAAAGGGUAUGGUAAUAAGCUGACGGACAUGGUCCUAACCACGCAGCCAAGUCCUAAGUCAACAGAUCUUCUGUUGAUAUGGAUGCAGUUCACAGACUAAAUGUCGGUCGGGGAAGAUGUAUUCUUCUCAUAAGAUAUAGUCGGACCUCUCCUUAAUGGGAGCUAGCGGAUGAAGUGAUGCAACACUGGAGCCGCUGGGAACUAAUUUGUAUGCGAAAGUAUAUUGAUUAGUUUUGGAGUACUCGUGGUCG
Procedure, shortened: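 The eight P1ex-region nucleotides of an intron in the knt kanamycin-resistance gene on pET-22b(+) were all randomised and the library put into E. coli BL21(DE3). Six replicate transformations were grown overnight at 37°C or 30°C on LB agar with or without 25 μg/mL kanamycin, together with 100 μg/mL carbenicillin, 50 μM IPTG and 0.2% rhamnose. Colonies were pooled and amplicon-sequenced on an Illumina HiSeq 2500. Fitness from DiMSum is the error-weighted combination of wild-type-normalised replicate fold changes, kanamycin over none.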

Sequence	self-splicing fitness (ln) (30 °C)	self-splicing fitness (ln) (37 °C)
AAGAAGCAAUAUUACGGUUA	-0.783 ± 0.15	-0.983 ± 0.12
AAGAAGCAAUAUUACGUAGA	-2.64 ± 0.13	-1.01 ± 0.11
AAGAAGCAAUAUUACGUCUG	-0.345 ± 0.054	0.0995 ± 0.071
AAGAAGCAAUAUUACGUGUG	-2.3 ± 0.09	-0.663 ± 0.081
AAGCAGCAAUAUUACGAAGU	-3.3 ± 0.13	-1.34 ± 0.13
AAGCAGCAAUAUUACGAAUU	-0.851 ± 0.069	0.12 ± 0.099
AAGCAGCAAUAUUACGAGCC	-3.37 ± 0.34	-1.2 ± 0.24
AAGCAGCAAUAUUACGAGGC	-1.38 ± 0.13	-2.17 ± 0.22
AAGCAGCAAUAUUACGAGGU	-3.55 ± 0.16	-2.65 ± 0.19
AAGCAGCAAUAUUACGAUGG	-2.99 ± 0.13	-1.84 ± 0.14
AAGCAGCAAUAUUACGAUGU	-1.3 ± 0.06	-0.566 ± 0.078
AAGCAGCAAUAUUACGCACG	-1.15 ± 0.079	-0.574 ± 0.095
AAGCAGCAAUAUUACGCAUC	-2.72 ± 0.18	–
AAGCAGCAAUAUUACGCCCU	-0.309 ± 0.14	0.0798 ± 0.18
AAGCAGCAAUAUUACGCCGG	-1.52 ± 0.11	-0.994 ± 0.17
AAGCAGCAAUAUUACGCCUC	–	-1.22 ± 0.4
AAGCAGCAAUAUUACGCCUU	-2.42 ± 0.16	-1.35 ± 0.12
AAGCAGCAAUAUUACGCGCG	-1.16 ± 0.082	-0.105 ± 0.1
AAGCAGCAAUAUUACGGAAC	-3.6 ± 0.3	–

Sequence	self-splicing fitness (ln) (30 °C)	self-splicing fitness (ln) (37 °C)
AAGCAGCAAUAUUACGGAAU	-3.08 ± 0.13	-1.66 ± 0.11
AAGCAGCAAUAUUACGGACA	-1.69 ± 0.16	0.0141 ± 0.11
AAGCAGCAAUAUUACGGAGA	-2.7 ± 0.13	-1.44 ± 0.13
AAGCAGCAAUAUUACGGAGU	-3.69 ± 0.13	-1.15 ± 0.1
AAGCAGCAAUAUUACGGCCC	0.22 ± 0.14	0.271 ± 0.17
AAGCAGCAAUAUUACGGCGA	-0.328 ± 0.075	0.355 ± 0.094
AAGCAGCAAUAUUACGGGAU	-3.63 ± 0.14	-1.92 ± 0.1
AAGCAGCAAUAUUACGGUGU	-1.85 ± 0.09	-0.979 ± 0.12
AAGCAGCAAUAUUACGGUUA	-0.142 ± 0.072	0.0491 ± 0.087
AAGCAGCAAUAUUACGUAAA	-1.84 ± 0.087	-0.803 ± 0.11
AAGCAGCAAUAUUACGUACC	-1.17 ± 0.19	-0.569 ± 0.22
AAGCAGCAAUAUUACGUCCA	-0.662 ± 0.089	-0.156 ± 0.1
AAGCAGCAAUAUUACGUCGG	-2.24 ± 0.1	-1.7 ± 0.17
AAGCAGCAAUAUUACGUCUU	-1.66 ± 0.075	-1.05 ± 0.071
AAGCAGCAAUAUUACGUGCG	-0.989 ± 0.073	-0.0742 ± 0.092
AAGCAGCAAUAUUACGUGGG	-3.54 ± 0.13	-1.36 ± 0.084
AAGCAGCAAUAUUACGUGUC	-2.94 ± 0.15	-2.01 ± 0.15
AAGCAGCAAUAUUACGUUAU	-2.38 ± 0.089	-1.21 ± 0.1
AAGCAGCAAUAUUACGUUGC	-2.46 ± 0.099	-3.24 ± 0.21

Source: the supplement of paper PMC7877785
